Measured values as given in IntAct's records for PubMed 12374762.

B1: Aryl-hydrocarbon-interacting protein-like 1 (Homo sapiens), Q9NZN9 (parent)
chain: MDAALLLNVEGVKKTILHGGTGELPNFITGSRVIFHFRTMKCDEERTVIDDSRQVGQPMHIIIGNMFKLEVWEILLTSMRVHEVAEFWCDTIHTGVYPILSRSLRQMAQGKDPTEWHVHTCGLANMFAYHTLGYEDLDELQKEPQPLVFVIELLQVDAPSDYQRETWNLSNHEKMKAVPVLHGEGNRLFKLGRYEEASSKYQEAIICLRNLQTKEKPWEVQWLKLEKMINTLILNYCQCLLKKEEYYEVLEHTSDILRHHPGIVKAYYVRARAHAEVWNEAEAKADLQKVLELEPSMQKAVRRELRLLENRMAEKQEEERLRCRNMLSQGATQPPAEPPTEPPAQSSTEPPAEPPTAPSAELSAGPPAEPATEPPPSPGHSLQH

Variants of: B1
Conditions: with nub1_human NUB1, Q9Y5A7
Sequence of nub1_human NUB1, Q9Y5A7 (Q9Y5A7 whole entry): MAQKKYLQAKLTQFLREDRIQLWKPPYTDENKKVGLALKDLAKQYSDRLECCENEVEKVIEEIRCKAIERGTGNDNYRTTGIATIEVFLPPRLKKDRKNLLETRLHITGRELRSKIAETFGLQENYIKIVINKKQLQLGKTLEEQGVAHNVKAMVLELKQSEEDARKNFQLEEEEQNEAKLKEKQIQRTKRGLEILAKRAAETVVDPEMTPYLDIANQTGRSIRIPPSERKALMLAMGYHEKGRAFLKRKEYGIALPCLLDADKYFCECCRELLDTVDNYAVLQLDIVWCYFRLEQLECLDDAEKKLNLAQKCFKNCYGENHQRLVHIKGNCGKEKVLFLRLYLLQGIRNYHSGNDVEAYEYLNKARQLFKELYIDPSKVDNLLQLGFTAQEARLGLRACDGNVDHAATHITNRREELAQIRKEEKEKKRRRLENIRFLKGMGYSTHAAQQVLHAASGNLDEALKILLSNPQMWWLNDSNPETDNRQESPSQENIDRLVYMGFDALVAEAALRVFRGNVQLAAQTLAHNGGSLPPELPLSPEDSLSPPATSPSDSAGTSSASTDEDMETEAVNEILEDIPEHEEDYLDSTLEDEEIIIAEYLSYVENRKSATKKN

Effect of a mutation on the interaction, decreasing interaction:
G262S
V96I
R302L
M79T
R53W
